These results are taken from article PMC10399710, “The invariant chain CD74 protein is a cell surface binding partner of TIMP‐1 in breast cancer cells” (Molecular Oncology, 2023).

The assay has as its target T1, MHC class II‐associated invariant chain γ (CD74), endogenous in MDA‐MB‐231 cells (human (endogenous in MDA‐MB‐231), UniProt P04233 1-296).
T1 sequence (looked up): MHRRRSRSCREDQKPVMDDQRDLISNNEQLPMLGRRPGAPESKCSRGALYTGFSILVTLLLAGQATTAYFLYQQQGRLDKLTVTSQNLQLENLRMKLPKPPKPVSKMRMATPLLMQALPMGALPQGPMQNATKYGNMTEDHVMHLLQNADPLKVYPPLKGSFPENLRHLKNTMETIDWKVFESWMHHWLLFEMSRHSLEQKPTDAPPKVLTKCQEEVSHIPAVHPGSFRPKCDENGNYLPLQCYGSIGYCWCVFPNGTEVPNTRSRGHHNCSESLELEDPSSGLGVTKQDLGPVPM
The assay is described as follows: cell-based or functional assay.

B1: his6‐tagged human recombinant TIMP‐1 protein (rTIMP‐1) (natural protein)
chain: not shown
modifications: extensively glycosylated
On to B1, for which the “P‐Akt (Ser473)/Akt ratio in MDA‐MB‐231 cells after 10 and 30 min of rTIMP‐1, normalised to 0 min (western blot)” value was 2.3 P‐Akt/Akt ratio normalised to the 0 min sample.
